This passage reports ECL reaction (MRA) results from patent US20240270846A1.

Where “and” joins values, the source holds several entries; their conditions need not be identical. Equal entries are not always repeated.

For this experiment, the target named is ECM (extracellular matrix). The experiment can be described thus: ECL assay on ECM (Matrigel)-coated plate, MRA reference of the same plate or date.

For the substance MRA (antibody), the ECL reaction (MRA) was 448 and 564.
